Data set [1] in a line: Properties of the purified acid phosphatase. Conditions: for Temperature stability (stable up to): treatment at pH 7.0 for 30 minutes. It counts as biochemical. The protocol:
The transphosphorylation activity was measured under the following condition using inosine as the substrate. The reaction was performed at pH 5.0 at 30° C. for 10 minutes in a reaction solution (1 ml) containing 40 μmol/ml of inosine, 100 μmol/ml of sodium pyrophosphate, 100 μmol/ml of sodium acetate buffer (pH 5.0), and an enzyme. The reaction was stopped by adding 200 μl of 2 N hydrochloric acid. After that, precipitates were removed by centrifugation. Then, 5′-inosinic acid produced by the transphosphorylation reaction was quantitatively measured. The amount of enzyme to produce 1 μmol of 5′-inosinic acid per 1 minute under this standard reaction condition was defined as 1 unit.
The phosphomonoesterase activity was measured under the following condition using 5′-inosinic acid as a substrate. The reaction was performed at 30° C. for 10 minutes in a reaction solution (1 ml) containing 10 μmol/ml of 5′-inosinic acid, 100 μmol/ml of MES/NaOH buffer (pH 6.0), and an enzyme. The reaction was stopped by adding 200 μl of 2 N hydrochloric acid. After that, precipitates were removed by centrifugation. Then, inosine produced by the hydrolytic reaction was quantitatively measured. An amount of enzyme to produce 1 μmol of inosine per 1 minute under this standard reaction condition was defined as 1 unit.

The nature of data set [2]: 5′-inosinic acid production by purified enzyme sample at various pH. It counts as biochemical. Particulars: enzyme 50 units/dl, pH 4.0, 30° C., 3 hours. The protocol:
Sodium pyrophosphate (10 g/dl) and inosine (2 g/dl) were dissolved in sodium acetate buffers each having pH of 5.5, 5.0, 4.5, 4.0, and 3.5, to which the enzyme sample described above was added so that a concentration of 50 units/dl was obtained. The reaction mixture was incubated at 30° C. for 6 hours while maintaining each pH, and the amount of produced 5′-inosinic acid was measured along with passage of time. Produced inosinic acid contained only 5′-inosinic acid. Production of 2′-inosinic acid and 3′-inosinic acid by-products was not observed at all. The velocity of 5′-inosinic acid production was maximum at pH 5.0. However, the maximum accumulated amount of 5′-inosinic acid was higher at lower pH. The reaction condition at pH 4.0 was most efficient for production of 5′-inosinic acid, in which 5′-inosinic acid was produced and accumulated in an amount of 2.60 g/dl by performing the reaction for 3 hours.
Sodium pyrophosphate (15 g/dl) and inosine (3 g/dl) were dissolved in sodium acetate buffers each having pH of 5.5, 5.0, 4.5, 4.0, and 3.5, to which the enzyme sample described above was added so that a concentration of 50 units/dl was obtained. The reaction mixture was incubated at 30° C. for 6 hours while maintaining each pH, and the amount of produced 5′-inosinic acid was measured along with passage of time. Produced inosinic acid contained only 5′-inosinic acid. […]

[3] abbreviates: phosphate ester hydrolytic reaction.

B1: Acid Phosphatase Derived from Escherichia blattae: enzyme purified from cell-free extract of Escherichia blattae JCM 1650 (SEQ ID NO: 8) (protein)
chain: LALVATGNDTTTKPDLYYLKNSEAINSLALLPPPPAVGSIAFLNDQAMYEQGRLLRNTERGKLAAEDANLSSGGVANAFSGAFGSPITEKDAPALHKLLTNMIEDAGDLATRSAKDHYMRIRPFAFYGVSTCNTTEQDKLSKNGSYPSGHTSIGWATALVLAEINPQRQNEILKRGYELGQSRVICGYHWQSDVDAARVVGSAVVATLHTNPAFQQQLQKAKAEFAQHQKK
Regarding B1, in data set [1], the Optimum temperature entry is “about 35 °C”, the “phosphate ester hydrolytic activity (phosphomonoesterase activity) higher than the transphosphorylation activity” value is reported as “not less than 30 times” and the “Temperature stability (stable up to)” value is “up to 40 °C”. The “Optimum pH” value in data set [1] (setting [3]) was determined as 6.5. Besides, the “Optimum pH” value in data set [1] (transphosphorylation reaction) was found to be 5.2. Moreover, the “5′-inosinic acid produced and accumulated” value in data set [2] (sodium pyrophosphate 15 g/dl, inosine 3 g/dl) amounted to 1.56 g/dL.

B2: Acid Phosphatase Derived from Morganella morganii: enzyme purified from cell-free extract of Morganella morganii NCIMB 10466 (SEQ ID NO: 4) (protein)
chain: AIPAGNDATTKPDLYYLKNEQAIDSLKLLPPPPEVGSIQFLNDQAMYEKGRMLRNTERGKQAQADADLAAGGVATAFSGAFGYPITEKDSPELYKLLTNMIEDAGDLATRSAKEHYMRIRPFAFYGTETCNTKDQKKLSTNGSYPSGHTSIGWATALVLAEVNPANQDAILERGYQLGQSRVICGYHWQSDVDAARIVGSAAVATLHSDPAFQAQLAKAKQEFAQKSQK
With B2, in data set [1], the Optimum temperature entry was “about 35 °C”, the “phosphate ester hydrolytic activity (phosphomonoesterase activity) higher than the transphosphorylation activity” value was “not less than 20 times” and the “Temperature stability (stable up to)” value was “up to 30 °C”. For the same molecule, the “Optimum pH” value in data set [1] (setting [3]) was determined as 6.5. Besides, in data set [1] (transphosphorylation reaction), the “Optimum pH” value is 5.2. Besides, the “5′-inosinic acid produced and accumulated” value in data set [2] (sodium pyrophosphate 10 g/dl, inosine 2 g/dl) is 2.60 g/dL.

The values are drawn from patent publication US6355472B2, “Method for producing nucleoside-5′-phosphate ester” (Ajinomoto Co., Inc., priority 1996, dated 2002).
